Assay results published in the RNAGym collection of RNA variant scans (doi:10.1021/acssynbio.7b00057).

B1: Pistol ribozyme (parent)
chain: GGGUCGUUGUUCCAUAAUCGCGUGGAUAUGGCACGCAAGUUUCUACCGGGCACCGUAAAUGUCCGACUGGAGCCGUUCGGGCGGCUAUAAACAGACCUCAGGCCCGAAGCGUGGCGGCACCUGCCGCCGGUGGUAAAAAAGAUCGGAAGAGCACACGUCU

Variants of: B1
Test: aptazyme ON/OFF ratio, guanine; higher = stronger switching; co-transcriptional cleavage with and without guanine

Variant | aptazyme ON/OFF ratio
U7G U8A G9U U10G U11G C12G C13A | 1.15
U7G U8A G9C U11G C13U | 1.04
U7G U8A G9C U11G C13G | 1.04
U7G U8A G9C U11G C13A | 1.06
U7G U8A U10A U11G C12U C13U | 1.71
U7G U8A U10A U11G C12U C13G | 1.14
U7G U8A U10A U11G C12U C13A | 1.38
U7G U8A G9U U11A C12G C13A | 1.06
U7G U8A G9U U11A C12G C13U | 1.04
U7G U8A G9U U11A C12G C13G | 1.06
U7G U8A U10C C12G | 1.46
U7G U8A U10C C12A | 1.5
U7G U8A U10A U11A C12G C13G | 1.2
U7G U8A U10A U11A C12G C13A | 1.14
U7G U8A U10A U11A C12G C13U | 1.46
U7G U8A G9U U10C C12U C13A | 1.12
U7G U8A G9U U10C C12U C13U | 1.03
U7G U8A G9U U10C C12U C13G | 1.04
U7G U8A G9U U10A U11A | 1.46
U7G U8A G9U U10A U11C | 1.03
U7G U8A G9U U10A U11G | 1.09

Variant | aptazyme ON/OFF ratio
U7G U8A G9U U10C U11A C12G C13G | 1.07
U7G U8A G9U U10C U11A C12G C13U | 1.09
U7G U8A G9U U10C U11A C12G C13A | 1.1
U7G U8A G9U U11G C12A C13G | 1.05
U7G U8A G9U U11G C12A C13U | 1.09
U7G U8A G9U U11G C12A C13A | 1.09
U7G U8A G9U U10A U11A C13A | 1.13
U7G U8A G9U U10A U11A C13U | 1.07
U7G U8A G9U U10A U11A C13G | 1.02
U7G U8A G9U U10A U11G C12A | 1.06
U7G U8A G9U U10A U11G C12U | 1.16
U7G U8A G9U U10A U11G C12G | 1.08
U7G U8A G9U U10A U11A C12G | 1.05
U7G U8A G9U U10A U11A C12A | 1.08
U7G U8A G9U U10A U11A C12U | 1.09
U7G U8A G9U U10G U11C C13U | 1.06
U7G U8A G9U U10G U11C C13A | 1.06
U7G U8A G9U U10G U11C C13G | 1.04
U7G U8A U10A C12G | 1.3
U7G U8A U10A C12U | 1.18
U7G U8A U10A C12A | 1.26

Variant | aptazyme ON/OFF ratio
U7G U8A G9U U10G U11A C12U C13A | 1.11
U7G U8A G9U U10G U11A C12U C13G | 1.03
U7G U8A G9U U10G U11A C12U C13U | 1.02
U7G U8A U10A U11A C12A C13U | 1.08
U7G U8A U10A U11A C12A C13G | 1.18
U7G U8A U10A U11A C12A C13A | 1.21
U7G U8A U10A U11G C12A | 1.11
U7G U8A U10A U11G C12G | 1.33
U7G U8A U10A U11G C12U | 1.14
U7G U8A G9U U10C U11C | 1.06
U7G U8A G9U U10C U11A | 1.41
U7G U8A G9U U10C U11G | 1.24
U7G U8A G9U U10C U11C C12G C13U | 1.06
U7G U8A G9U U10C U11C C12G C13A | 1.09
U7G U8A G9U U10C U11C C12G C13G | 1.06
U7G U8A G9U U10G U11C C12G C13G | 1.03
U7G U8A G9U U10G U11C C12G C13U | 1.21
U7G U8A G9U U10G U11C C12G C13A | 1.09
U7G U8A U10A U11C C12A C13U | 1.17
U7G U8A U10A U11C C12A C13G | 1.25
U7G U8A U10A U11C C12A C13A | 1.26

Variant | aptazyme ON/OFF ratio
U7G U8A G9U U10A U11C C12A C13G | 1.02
U7G U8A G9U U10A U11C C12A C13A | 1.1
U7G U8A G9U U10A U11C C12A C13U | 1.05
U7G U8A U10A U11C C12U C13A | 1.18
U7G U8A U10A U11C C12U C13U | 1.19
U7G U8A U10A U11C C12U C13G | 1.23
U7G U8A G9U U10C U11G C12U | 1.35
U7G U8A G9U U10C U11G C12A | 1.06
U7G U8A G9U U10C U11G C12G | 1.1
U7G U8A G9U U11G C13A | 1.07
U7G U8A G9U U11G C13U | 1.07
U7G U8A G9U U11G C13G | 1.02
U7G U8A G9U U10A U11G C12G C13U | 1.08
U7G U8A G9U U10A U11G C12G C13G | 1.15
U7G U8A G9U U10A U11G C12G C13A | 1.13
U7G U8A U10A C12G C13G | 1.22
U7G U8A U10A C12G C13U | 1.47
U7G U8A U10A C12G C13A | 1.23
U7G U8A G9U U10A U11C C12A | 1.07
U7G U8A G9U U10A U11C C12G | 1.09
U7G U8A G9U U10A U11C C12U | 1.03
